From ChEMBL document CHEMBL5252635, “The Mycobacterium tuberculosis mycothiol S-transferase is divalent metal-dependent for mycothiol binding and transfer” (2023) come the findings set out here.

Substrate in data set [1]: CC(=O)N[C@@H](CS)C(=O)N[C@H]1[C@@H](O[C@@H]2[C@H](O)[C@H](O)[C@@H](O)[C@H](O)[C@H]2O)O[C@H](CO)[C@@H](O)[C@@H]1O
The following applies: Mycobacterium tuberculosis.
Description: Binding affinity to Mycobacterium tuberculosis MST assessed as Km in presence of zinc

Substrate in data set [2]: CC(=O)N[C@@H](CS)C(=O)N[C@H]1[C@@H](O[C@@H]2[C@H](O)[C@H](O)[C@@H](O)[C@H](O)[C@H]2O)O[C@H](CO)[C@@H](O)[C@@H]1O
Description: Binding affinity to Mycobacterium tuberculosis MST assessed as Km by differential scanning fluorimetry method
The following applies: Mycobacterium tuberculosis. This is another data set of the same source.

B1: Conserved protein (Mycobacterium tuberculosis), O53728 (protein)
chain: MASTDAAAQELLRDAFTRLIEHVDELTDGLTDQLACYRPTPSANSIAWLLWHSARVQDIQVAHVAGVEEVWTRDGWVDRFGLDLPRHDTGYGHRPEDVAKVRAPADLLSGYYHAVHKLTLEYIAGMTADELSRVVDTSWNPPVTVSARLVSIVDDCAQHLGQAAYLRGIAR
As to B1, the values for the Km in data set [1] and in data set [2] were 9.8 µM and 18.4 µM, respectively.
